Substitutions are numbered along the chain they refer to.
B1: COVID19_R01_B01 (scFv, V domains shown)
VH: EVQLVESGGGLVQPGGSLRLSCAASGFTFASHAMSWVRQAPGKGLEWVSGISSDGSITTYADSVKGRFTISRDNSKNTLYLQMNSLRAEDTAVYYCARDRGWYLDYWGQGTLVTVSS
VL: not shown
B2: COVID19_R01_A04 (scFv, V domains shown)
VH: EVQLVESGGGLVQPGGSLRLSCAASGFTFSDHYMSWVRQAPGKGLEWVSAISTSGDSTFYADSVKGRFTISRDNSKNTLYLQMNNLRAEDTAVYYCARDRSYYLDYWGQGTLVTVSS
VL: EIVMTQSPATLSVSPGERATLSCRASQSVRSNLAWYQQKPGQAPRLLIYGASTRATGIPARFSGSGSGTEFTLTISSLQSEDFAVYYCQQFGTSPPGLSFGGGTKVEIKR
B3: COVID19_P04_D08 (scFv, V domains shown)
VH: EVQLVESGGGLVQPGGSLRLSCAASGFTFTNYAMTWVRQAPGKGLEWVSTMSNIGGDTYYADSVKGRFTISRDNSKNTLYLQMNSLRAEDTAVYYCARDRRVYLDYWGQGTLVTVSS
VL: DIQMTQSPSSLSASVGDRVTITCRASQSISSYLNWYQQKPGKAPKLLIYAASSLQSGVPSRFSGSGSGTEFTLTISSLQSEDFAVYYCQQYGSSPLTFGGGTKVEIKR
B4: COVID19_P04_G03 (scFv, V domains shown)
VH: EVQLVESGGGLVQPGGSLRLSCAASGFTVSSNYMNWVRQAPGKGLEWVSVVYPGGSTYYADSVKGRFTISRDNSKNTLYLQMNSLRAEDTAVYYCARDRSYYLDYWGQGTLVTVSS
VL: not shown
B5: COVID19_R01_B10 (scFv, V domains shown)
VH: B4 VH with N35S, V51I, Y58F
VL: EIVMTQSPATLSVSPGERATLSCRASQSVSSSYLAWYQQKPGQAPRLLIYGASTRATGIPARFSGSGSGTEFTLTISSLQSEDFAVYYCQQASSTPLTFGGGTKVEIKR
B6: COVID19_P04_G05 (scFv, V domains shown)
VH: B4 VH with F27L, T28S, S30T, N35S, V51I, Y58F
VL: not shown
B7: COVID19_R01_D02 (scFv, V domains shown)
VH: EVQLVESGGGLVQPGGSLRLSCAASGFTFDDYAMHWVRQAPGKGLEWVAIIYEGGSPHYADSVKGRFTISRDNSKNTLYLQMNSLRAEDTAVYYCARDRSGYLDYWGQGTLVTVSS
VL: EIVMTQSPATLSVSPGERATLSCRASQSVSNNLAWYQQKPGQAPRLLIYDASTRATGIPARFSGSGSGTEFTLTISSLQSEDFAVYYCQQYNNWPPTFGGGTKVEIKR
B8: COVID19_P04_B09 (scFv, V domains shown)
VH: EVQLVESGGGLVQPGGSLRLSCAASGFTFSNSDMNWVRQAPGKGLEWVSAISGTGDTTEYADSVKGRFTISRDNSKNTLYLQMNSLRAEDTAVYYCARDRSLMLDYWGQGTLVTVSS
VL: B7 VL with S30R, N31S, D50G, Y91R
B9: COVID19_P04_B10 (scFv, V domains shown)
VH: EVQLVESGGGLVQPGGSLRLSCAASGFRFSDAAIHWVRQAPGKGLEWVSAISGSGGSTYYADSVKGRFTISRDNSKNTLYLQMNSLRAEDTAVYYCARDRSYGIDYWGQGTLVTVSS
VL: not shown
B10: COVID19_P04_B03 (scFv, V domains shown)
VH: B2 VH with D31N, T53G, D56G, F59Y, N85S
VL: EIVMTQSPATLSVSPGERATLSCRASQSIGTYLSWYQQKPGQAPRLLIYGASTRATGIPARFSGSGSGTEFTLTISSLQSEDFAVYYCQQSLSLPVTFGGGTKVEIKR
B11: COVID19_R01_C08 (scFv, V domains shown)
VH: EVQLVESGGGLVQPGGSLRLSCAASGFSFSSYGMSWVRQAPGKGLEWVSAMNRDGSYIYYADSVKGRFTISRDNSKNTLYLQMNSLRAEDTAVYYCARDRSYYVGYWGQGTLVTVSS
VL: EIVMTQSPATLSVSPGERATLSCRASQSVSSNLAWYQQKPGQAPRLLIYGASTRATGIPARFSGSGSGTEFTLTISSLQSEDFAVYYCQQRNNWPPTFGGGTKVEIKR
notes: also called COVID19_R01_CO8
B12: COVID19_P04_E10 (scFv, V domains shown)
VH: B11 VH
VL: B7 VL with S30R, N31S, D50G, Y91R

The binders below were run against SARS-Cov-2 Receptor Binding Domain (RBD) protein (SARS-CoV-2, UniProt P0DTC2 319-541) (assay: SPR (Carterra LSA), scFv captured via anti-V5, RBD as analyte, 1:1 fit).

For B1, which Kd is on record?
Its Kd is 12.5 nM.

What about the koff of the same binder?
The koff was 0.00055 s⁻¹.

And the kon?
Its kon is 44000 M⁻¹ s⁻¹.

What does the source list for B2?
Kd: 10.9 nM; koff: 0.012 s⁻¹; kon: 1.1e+06 M⁻¹ s⁻¹

How did the Kd turn out when B3 was run?
The Kd was 40.7 nM.

What about the koff of the same binder?
Its koff is 0.0113 s⁻¹.

And the kon?
Its kon is 279000 M⁻¹ s⁻¹.

Which results are given for B4?
Kd: 7.1 nM; koff: 0.00045 s⁻¹; kon: 63000 M⁻¹ s⁻¹

With B5 as the binder, how does the Kd read?
Its Kd is 30.4 nM.

And the koff?
Its koff is 0.00294 s⁻¹.

And the kon?
Its kon is 96900 M⁻¹ s⁻¹.

Which Kd does the source give for B6 here?
Its Kd is 0.72 nM.

And the koff?
Its koff is 5.7e-05 s⁻¹.

And the kon?
The kon was 79000 M⁻¹ s⁻¹.

What does the source list for B7?
Kd: 2.8 nM; koff: 0.00058 s⁻¹; kon: 210000 M⁻¹ s⁻¹

For B8, which Kd is on record?
The Kd was 1.4 nM.

And the koff?
The koff was 0.00032 s⁻¹.

And the kon?
Its kon is 230000 M⁻¹ s⁻¹.

What does the source list for B9?
Kd: 2.5 nM; koff: 0.0005 s⁻¹; kon: 200000 M⁻¹ s⁻¹

With B10 as the binder, how does the Kd read?
Its Kd is 19.7 nM.

What about the koff of the same binder?
The koff was 0.0141 s⁻¹.

What about the kon of the same binder?
The kon was 716000 M⁻¹ s⁻¹.

How did the Kd turn out when B11 was run?
Its Kd is 49.5 nM.

And the koff?
Its koff is 0.00379 s⁻¹.

What about the kon of the same binder?
Its kon is 76600 M⁻¹ s⁻¹.

B12 was tested. Which Kd did it give?
Its Kd is 4.4 nM.

And the koff?
Its koff is 0.00053 s⁻¹.

And the kon?
Its kon is 120000 M⁻¹ s⁻¹.

The binders below were run against MERS Receptor Binding Domain (RBD) protein (MERS coronavirus, UniProt K9N5Q8 367-606) (assay: SPR (Carterra LSA), scFv captured via anti-V5, RBD as analyte).

Does B3 bind?
Result: no binding (tested: 300 nM (highest analyte concentration))

Does B4 bind?
Result: no binding (tested: 300 nM (highest analyte concentration))

Does B6 bind?
Result: no binding (tested: 300 nM (highest analyte concentration))

Does B8 bind?
Result: no binding (tested: 300 nM (highest analyte concentration))

Does B9 bind?
Result: no binding (tested: 300 nM (highest analyte concentration))

Does B10 bind?
Result: no binding (tested: 300 nM (highest analyte concentration))

Does B12 bind?
Result: no binding (tested: 300 nM (highest analyte concentration))

These binders were tested against SARS-CoV-1 Receptor Binding Domain (RBD) protein (SARS-CoV-1, UniProt P59594 306-527) in the same assay as above.

Does B3 bind?
Result: no binding (tested: 300 nM (highest analyte concentration))

Does B4 bind?
Result: no binding (tested: 300 nM (highest analyte concentration))

Does B6 bind?
Result: no binding (tested: 300 nM (highest analyte concentration))

Does B8 bind?
Result: no binding (tested: 300 nM (highest analyte concentration))

Does B9 bind?
Result: no binding (tested: 300 nM (highest analyte concentration))

Does B10 bind?
Result: no binding (tested: 300 nM (highest analyte concentration))

Does B12 bind?
Result: no binding (tested: 300 nM (highest analyte concentration))

The binders below were run against SARS-CoV-2 spike protein (on pseudovirus / virus in the neutralisation assays) (SARS-CoV-2, UniProt P0DTC2 14-1273) (assay: cell-based or functional assay).

What does the source list for B7?
IC50 [µg/mL] plaque: < 3 µg/mL; IC50 [µg/mL] pseudotyped lenti neutralization: 0.62 µg/mL

Reference: US11021531 (CENTIVAX, dated 2021)
